Target: T1, SARS-CoV-2 RBD, His-tagged, for antibody binding studies (SARS-CoV-2, UniProt P0DTC2)
T1 construct: source: HEK293F, transient, purified from supernatant (Ni-NTA agarose)
Assay: BLI
Settings: both partners purified

B1: COVA1-16 VH R100bS mutant (antibody, V domains shown)
VH: QVQLVQSGAEVKKPGASVKVSCKASGYTFTSYYMHWVRQAPGQGLEWMGIINSSGGSTSYAQKFQGRVTMTRDTSTSTVYMELSSLRSEDTAVYYCARPPRNYYDSSGYYQRAEYFQHWGQGTLVTVSS
VL: DIQLTQSPSSLSASVGDRVTITCQASQDISNYLNWYQQRPGKAPKLLIYDASNLETGVPSRFSGSGSGTDFTFTISSLQPEDIATYYCQQYDNPPLTFGGGTKLEIK
Does B1 bind?
Result: binds

Source: publication PMC7687367 (Immunity, 2020)
